Results as given in the supplement of paper PMC9732359.
± gives the uncertainty stated by the source.

Test: protein stability index of a GFP-peptide fusion (yeast GPS) (PSI 1-4); higher = more stable; sorted into four equal gates, so the index is relative within each strain
Summary of the method: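 Peptides tiling yeast proteins in 17-residue segments were fused downstream of GFP, with Cherry expressed from the same plasmid. As a pooled library in yeast, mid-log cultures grown in leucine-free medium were sorted into four equal gates by GFP/Cherry fluorescence ratio. Gate plasmids were PCR-amplified and Illumina-sequenced, and barcodes linked reads to strains. Each peptide received a protein stability index equal to the sum of each gate's read frequency times its gate number.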

Row | Sequence | protein stability index (doa10∆) | protein stability index (pdr5∆) | protein stability index (san1∆) | protein stability index (ubr1∆)
1 | RAVKEIKKFAKLHMGTD [RPL31A] | 1.7 ± 0.036 | 1.32 ± 0.041 | 1.23 ± 0.061 | 1.58 ± 0.035
2 | KTNEESAKMILLSDPTI [PRP8] | 2.77 ± 0.12 | 2.95 ± 0.16 | 2.94 ± 0.1 | 2.92 ± 0.042
3 | SANERLFGNRPSMMAPL [YML031W/NDC1] | 2.96 ± 0.21 | 2.63 ± 0.13 | 2.62 ± 0.12 | 3.03 ± 0.089
4 | LENMPHPWEQAKEVKVL [PRP8] | 2.7 ± 0.23 | 2.9 ± 0.17 | 3.09 ± 0.1 | 2.94 ± 0.093
5 | LKYHDFLRKATAFNKTR [RPL16B] | 2.98 ± 0.047 | 3.06 ± 0.054 | 2.77 ± 0.053 | 3.08 ± 0.036
6 | ALEDEERDEILTLTDSQ [BRR2] | 3.09 ± 0.13 | 3.25 ± 0.14 | 3.23 ± 0.088 | 3.12 ± 0.16
7 | MSRPQVTVHSLTGEATA [RPL4A] | 1.59 ± 0.09 | 2.28 ± 0.07 | 1.88 ± 0.059 | 2.07 ± 0.082
8 | AILRQQQQMANNNGNPG [GAL11] | 2.77 ± 0.12 | 3.19 ± 0.13 | 2.7 ± 0.12 | 3.17 ± 0.05
9 | QTTEGYDPKDALKNACN [RPB11] | 3.28 ± 0.26 | 3.28 ± 0.14 | 3.26 ± 0.082 | 3.35 ± 0.15
10 | DLWNNFGNIMDNLLEMS [RRP6] | 3.42 ± 0.094 | 2.88 ± 0.076 | 3.21 ± 0.058 | 2.95 ± 0.11
11 | SGQLNFEIDGDVIHFED [PCI8] | 2.94 ± 0.091 | 2.83 ± 0.067 | 2.53 ± 0.075 | 2.83 ± 0.043
12 | KDFIENVNNRFDNFLTE [BRN1] | 3.06 ± 0.086 | 3.04 ± 0.093 | 3.2 ± 0.068 | 2.88 ± 0.066
13 | VKKPTFTFGQSTSENKI [YOR098C/NUP1] | 3.02 ± 0.21 | 2.87 ± 0.21 | 3.14 ± 0.2 | 3.45 ± 0.14
14 | VQKRDEVKEQLGILKKK [SMC4] | 2.75 ± 0.095 | 3.01 ± 0.077 | 3.24 ± 0.061 | 2.78 ± 0.05
15 | LDNFQKSVEKTMIKKTT [SMC3] | – | 3.29 ± 0.19 | 2.89 ± 0.069 | 3.17 ± 0.075
16 | VNSYRLNPNEYFSVTTA [SWI3] | – | 2.84 ± 0.2 | 2.3 ± 0.26 | 2.78 ± 0.22
17 | KGALMYGPPGTGKTLLA [RPT5] | 2.18 ± 0.074 | 2.24 ± 0.069 | 2.3 ± 0.18 | 1.35 ± 0.11
18 | FKVRTNLNDKFGIYILT [MED1] | 1.76 ± 0.05 | 1.87 ± 0.046 | 1.98 ± 0.098 | 1.92 ± 0.042
19 | QITPTVPHSHPSDMVIP [SNF12] | 2.69 ± 0.044 | 2.59 ± 0.045 | 2.63 ± 0.046 | 2.59 ± 0.034
20 | AMLNLINDNNTRPYILE [YCG1] | 3.22 ± 0.11 | 3.35 ± 0.15 | 3.08 ± 0.11 | 3.23 ± 0.19
21 | SGNEMPPQDAEGWFYKR [RPS19A] | 3.21 ± 0.13 | 3.29 ± 0.24 | 3.25 ± 0.13 | 3.17 ± 0.12
22 | KDAQKKDIEKLTNEISD [YIL149C/MLP2] | 2.54 ± 0.086 | 2.98 ± 0.07 | 2.65 ± 0.061 | 2.49 ± 0.078
23 | ILRSIPDKLLGVILMFA [COB] | 2.35 ± 0.06 | 1.58 ± 0.046 | 1.65 ± 0.069 | 1.52 ± 0.054
24 | LLTKNVSCYRPRRDGER [RPS6A] | 1.24 ± 0.22 | 2.8 ± 0.12 | 3.19 ± 0.085 | 3.4 ± 0.096
25 | SAFACKTDEVIILGTNL [BRR2] | 2.86 ± 0.054 | 3 ± 0.043 | 2.94 ± 0.04 | 2.9 ± 0.035
26 | RLHYYPKDPSNVETYEQ [BRR2] | 3.02 ± 0.11 | 3.11 ± 0.23 | 3.01 ± 0.24 | –
27 | LSESDKKSKLISLYLLN [RPN12] | 2.21 ± 0.17 | 3 ± 0.1 | 2.07 ± 0.21 | 2.31 ± 0.063
28 | RALRRALTKFEASQVTE [RPL35A] | – | 2.56 ± 0.14 | 3.11 ± 0.097 | 3.19 ± 0.1

Row | Sequence | protein stability index (doa10∆) | protein stability index (pdr5∆) | protein stability index (san1∆) | protein stability index (ubr1∆)
29 | NPLAKTMADAVRELGIL [SEC65] | 2.78 ± 0.058 | 2.3 ± 0.06 | 2.42 ± 0.075 | 1.84 ± 0.053
30 | AKSNEDKQDGTAKPAFS [YJL041W/NSP1] | 3.03 ± 0.23 | 3.44 ± 0.13 | 3.29 ± 0.17 | 2.96 ± 0.29
31 | PNPTPSMINSVSPTNVM [PGD1] | 2.21 ± 0.032 | 2.55 ± 0.037 | 2.32 ± 0.03 | 2.27 ± 0.028
32 | EPSYIFEYLATVMYQRR [PRE4] | 2.1 ± 0.081 | 2.46 ± 0.1 | 2.26 ± 0.091 | 2.12 ± 0.079
33 | YLTPPHECRLRDMTYSA [RET1] | 3.22 ± 0.11 | 3.02 ± 0.12 | 2.76 ± 0.16 | 3.14 ± 0.15
34 | IPVGDNTVVGISGDISD [PRE4] | 2.98 ± 0.13 | 3.12 ± 0.12 | 2.85 ± 0.16 | 3.02 ± 0.12
35 | VDNIVNKYQYSLKQYAG [SRP68] | 3.09 ± 0.084 | 3.08 ± 0.076 | 2.71 ± 0.068 | 2.99 ± 0.055
36 | FEQTAFSRHAQQQTSTF [SIR4] | 1.94 ± 0.07 | 2.32 ± 0.092 | 1.79 ± 0.093 | 2.01 ± 0.055
37 | PSTTLFNFGGKSDTVTS [YOR098C/NUP1] | 2.51 ± 0.065 | 2.32 ± 0.075 | 2.4 ± 0.073 | 2.92 ± 0.059
38 | VETNTTVLADEFIAHRL [RPB3] | 3.05 ± 0.058 | 3.18 ± 0.054 | 3.19 ± 0.04 | 3.22 ± 0.033
39 | SRPEYSCTFWSDKESNA [YJL039C/NUP192] | 2.08 ± 0.063 | 2.5 ± 0.061 | 2.51 ± 0.071 | 2.57 ± 0.072
40 | LVVRFTNKDIICQIISS [RPL5] | 1.62 ± 0.055 | 1.79 ± 0.062 | 1.25 ± 0.18 | 1.67 ± 0.051
41 | RGTIPLLERYIGNLITR [PRP8] | 1.52 ± 0.055 | 1.55 ± 0.045 | 1.48 ± 0.08 | 1.6 ± 0.039
42 | VTIREQINIMPSLKAHF [SIR3] | 2.53 ± 0.077 | 2.83 ± 0.075 | 2.85 ± 0.059 | 2.68 ± 0.043
43 | MLCTADTPEGEACGLVK [RET1] | 1.47 ± 0.1 | 1.77 ± 0.14 | – | –
44 | KGQGPFTLTYDIIETFS [YMR129W/POM152] | 1.95 ± 0.045 | 2.31 ± 0.064 | 2.02 ± 0.057 | 2.48 ± 0.044
45 | IQKESTLHLVLRLRGGG [RPS31] | 2.64 ± 0.12 | 2.31 ± 0.067 | 1.75 ± 0.096 | 2.45 ± 0.066
46 | DINQAKDFIENVNNRFD [BRN1] | 3.25 ± 0.12 | 3.23 ± 0.086 | 3.3 ± 0.067 | 3.08 ± 0.056
47 | MVRLKSRYILFEIIFPP [POP5] | 1.47 ± 0.067 | 1.42 ± 0.054 | 1.52 ± 0.084 | 1.5 ± 0.047
48 | FIYGMSAKDHPKVKEIK [PRP8] | 2.53 ± 0.25 | 3.12 ± 0.19 | 2.72 ± 0.23 | 3.33 ± 0.16
49 | PGNNIPYMNHKNTSSMD [GAL11] | – | 2.11 ± 0.14 | 2.16 ± 0.21 | –
50 | GYMQKPVYATIGVETGS [PRP28] | 1.47 ± 0.25 | 2.23 ± 0.21 | 1.68 ± 0.19 | 1.77 ± 0.19
51 | SDNKKRSGSNAAASLPS [RPC82] | 2.89 ± 0.058 | 3.19 ± 0.06 | 2.86 ± 0.042 | 3 ± 0.038
52 | NFGNNGAGGLNPFTSAT [YOR098C/NUP1] | 2.89 ± 0.055 | 3.21 ± 0.09 | 3.15 ± 0.045 | 3.04 ± 0.052
53 | APSGIRMHLAPASKQGY [SSN2] | 2.24 ± 0.17 | 2.48 ± 0.11 | 2.22 ± 0.13 | 2.36 ± 0.097
54 | GIDPDETVPDNVKTSVS [RPO31] | 2.83 ± 0.22 | – | – | –
55 | QQQQQFRHHVQIQQQQQ [SNF5] | 1.3 ± 0.033 | 1.76 ± 0.036 | 1.45 ± 0.086 | 1.32 ± 0.025
